Measurements as given in US20240059769A1 (BIOLOJIC DESIGN, published 2024).
Where two headings read alike, the source gives them in different places.

Assays:
[1] = target: T1, cynomolgus monkey (cyno) TSLP (cynomolgus monkey, UniProt A0A7N9CAT7 29-159); experiment: SPR
T1 construct: also called cTSLP; cynomolgus TSLP

hTSLP-His [2] = target: T2, hTSLP-His (human, UniProt Q969D9 29-159, limits assumed); experiment: cell-based or functional assay
recombinant human IL-13 [3] = target: T3, recombinant human IL-13 (human, UniProt P35225 35-146); experiment: cell-based or functional assay
T3 sequence (P35225 35-146 limits assumed): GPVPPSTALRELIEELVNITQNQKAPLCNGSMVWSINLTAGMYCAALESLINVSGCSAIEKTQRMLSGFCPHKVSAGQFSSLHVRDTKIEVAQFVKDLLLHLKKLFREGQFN

human TSLP [4] = target: T4, human TSLP (human, UniProt Q969D9 29-159); experiment: cell-based or functional assay
recombinant human IL-13 [5] = target: T3, recombinant human IL-13; experiment: cell-based or functional assay; remark: listed apart in the source
human TSLP [6] = target: T4, human TSLP; experiment: SPR
recombinant human IL-13 [7] = target: T3, recombinant human IL-13; experiment: SPR
[8] = target: T5, recombinant cynomolgus monkey IL-13 (cynomolgus monkey, UniProt Q0PW92 21-132); experiment: SPR
T5 construct: bought; also called rc-IL-13; cIL-13
T5 sequence (Q0PW92 entry or part of it): as the sequence (P35225 35-146 limits assumed) above, with G1S, R10K, M42V, S67N, H83R, L100V counted along it

hIL-13-His [9] = target: T6, hIL-13-His (human, UniProt P35225 35-146); experiment: SPR (Biacore), antibody captured on anti-human Fc chip, hIL-13 as analyte, multi-cycle, 1:1 binding model
T6 construct: bought; also called human IL-13 (Acro Biosystems IL3-H52H4); not shown: His tag
T6 sequence (P35225 35-146 limits assumed): as the sequence (P35225 35-146 limits assumed) above

human TSLP [10] = target: T4, human TSLP; experiment: SPR (Biacore), antibody captured on anti-human Fc chip, hTSLP as analyte, multi-cycle, 1:1 binding model
human TSLP [11] = target: T4, human TSLP; experiment: as above; remark: listed apart in the source
hIL-13-His [12] = target: T6, hIL-13-His; experiment: SPR (Biacore), antibody captured on anti-human Fc chip, hIL-13 as analyte, multi-cycle, 1:1 binding model; remark: listed apart in the source
T6 sequence (P35225 35-146 limits assumed): as above

hIL-13-His [13] = target: T6, hIL-13-His; experiment: cell-based or functional assay
hTSLP-His [14] = target: T2, hTSLP-His; experiment: competition ELISA, 7 nM TSLP-His pre-incubated with antibody; competitor Tezepelumab coated
hTSLP-His [15] = target: T2, hTSLP-His; experiment: competition ELISA: antibody titrated and pre-incubated with 7 nM TSLP-His, then on a plate coated with 33.001 (Tezepelumab), anti-His detection; row head on the sheet reads EC50, unit from the axis
human TSLP [16] = target: T4, human TSLP; experiment: SPR; remark: listed apart in the source
recombinant human IL-13 [17] = target: T3, recombinant human IL-13; experiment: SPR; remark: listed apart in the source

T1 sequence (A0A7N9CAT7 entry or part of it): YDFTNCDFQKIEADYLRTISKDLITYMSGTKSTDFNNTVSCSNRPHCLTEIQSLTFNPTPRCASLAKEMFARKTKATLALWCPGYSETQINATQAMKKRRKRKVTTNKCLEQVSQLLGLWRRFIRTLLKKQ

B1: BDG38.138 (antibody, human IgG1, lambda, L234A L235A)
heavy: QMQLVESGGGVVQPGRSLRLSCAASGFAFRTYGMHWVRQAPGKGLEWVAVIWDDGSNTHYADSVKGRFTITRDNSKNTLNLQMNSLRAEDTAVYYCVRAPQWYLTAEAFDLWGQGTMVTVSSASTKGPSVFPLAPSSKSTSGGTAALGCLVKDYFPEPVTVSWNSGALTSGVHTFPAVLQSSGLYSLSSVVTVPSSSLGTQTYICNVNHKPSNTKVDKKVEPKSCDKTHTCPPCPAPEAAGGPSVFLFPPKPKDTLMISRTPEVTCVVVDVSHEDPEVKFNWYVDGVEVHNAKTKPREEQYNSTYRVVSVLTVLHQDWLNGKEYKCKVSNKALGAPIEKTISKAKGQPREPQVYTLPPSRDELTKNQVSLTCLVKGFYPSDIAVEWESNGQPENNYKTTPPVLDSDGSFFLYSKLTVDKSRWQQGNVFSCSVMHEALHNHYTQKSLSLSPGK
light: SYVLTQPPSVSVAPGETASITCGGNMIGGYLVHWYQQKPGQAPVLVIYDDVDRPSRIPERFSGSNSGNTATLTISRVEAGDEADYYCQVWDHNSNHMVFGGGTKLTVLGQPKAAPSVTLFPPSSEELQANKATLVCLISDFYPGAVTVAWKADSSPVKAGVETTTPSKQSNNKYAASSYLSLTPEQWKSHRSYSCQVTHEGSTVEKTVAPTECS
notes: human IgG1 L234A/L235A/P329G (LALAPG); also called hIgG1 LALAPG; hIgG1 LALA-PG
- Kd [1]: 0.00135 nM
- koff [1]: 1.85e-05 s⁻¹
- kon [1]: 1.37e+07 M⁻¹ s⁻¹
- IC50 [pM], STAT5 phosphorylation inhibition in MUTZ5 cells (hTSLP-His [2]): 45.2 pM
- HEK-IL-13 [nM] (IC50, STAT6 reporter) (recombinant human IL-13 [3]): 0.0286 nM
- IC50 TARC (human TSLP [4]): 2.36 nM
- IC50 CD23 (recombinant human IL-13 [5]): 0.164 nM
- Kd (human TSLP [6]): 0.00285 nM
- koff (human TSLP [6]): 4.28e-05 s⁻¹
- kon (human TSLP [6]): 1.5e+07 M⁻¹ s⁻¹
- Kd (recombinant human IL-13 [7]): 0.0134 nM
- koff (recombinant human IL-13 [7]): 0.00016 s⁻¹
- kon (recombinant human IL-13 [7]): 1.19e+07 M⁻¹ s⁻¹
- Kd [8]: 0.849 nM
- koff [8]: 0.00653 s⁻¹
- kon [8]: 7.7e+06 M⁻¹ s⁻¹
- Kd (hIL-13-His [9]): 0.0523 nM
- koff (hIL-13-His [9]): 0.000455 s⁻¹
- kon (hIL-13-His [9]): 8.7e+06 M⁻¹ s⁻¹
- Kd (human TSLP [10]): 0.00661 nM
- koff (human TSLP [10]): 0.000212 s⁻¹
- kon (human TSLP [10]): 3.2e+07 M⁻¹ s⁻¹

B2: BDG38.145 (antibody, human IgG1, lambda, L234A L235A)
heavy: not shown
light: SYVLTQPPSVSVAPGETASITCGGNMIGGYLVHWYQQKPGQAPVLVIYDDVDRPSRIPERFSGSNSGNTATLTISRVEAGDEADYYCQVWDHNSNHMVFGGGTKLTVLGQPKAAPSVTLFPPSSEELQANKATLVCLISDFYPGAVTVAWKADSSPVKAGVETTTPSKQSNNKYAASSYLSLTPEQWKSHRSYSCQVTHEGSTVEKTVAPTECS
notes: human IgG1 L234A/L235A (LALA); same VH/VL as BDG38.138; also called BSG38.145; hIgG1 LALA
- Kd (human TSLP [11]): 0.00779 nM
- koff (human TSLP [11]): 0.0002 s⁻¹
- kon (human TSLP [11]): 2.57e+07 M⁻¹ s⁻¹
- Kd (hIL-13-His [12]): 0.0879 nM
- koff (hIL-13-His [12]): 0.000323 s⁻¹
- kon (hIL-13-His [12]): 3.67e+06 M⁻¹ s⁻¹
- IC50, CD23 expression on monocytes (hPBMC, 0.7 nM IL-13) (hIL-13-His [13]): 0.38 nM

B3: BDG38.082 (antibody, V domains shown)
VH: QMQLVESGGGVVQPGRSLRLSCAASGFAFRTYGMHWVRQAPGKGLEWVAVIWDDGSNTHYADSVKGRFTITRDNSKNTLNLQMNSLRAEDTAVYYCVRAPQWYLTAEAFDLWGQGTMVTVSS
VL: SYVLTQPPSVSVAPGETATITCGGNMIGGYLVHWYQQKPGQAPVLVIYDDVDRPDRIPERFSGSNSGNTATLTISRVEAGDEADYYCQVWDHDTNQVVFGGGTKLTVL
notes: IgG1
- IC50 (hTSLP-His [14]): 2.7 nM
- HEK-IL-13 [nM] (IC50, STAT6 reporter) (recombinant human IL-13 [3]): 0.043 nM
- IC50 TARC (human TSLP [4]): 1.58 nM
- IC50 CD23 (recombinant human IL-13 [5]): 0.0391 nM
- IC50 (hTSLP-His [15]): 2.73 nM
- Kd (human TSLP [16]): 0.0616 nM
- koff (human TSLP [16]): 0.000158 s⁻¹
- kon (human TSLP [16]): 2.56e+06 M⁻¹ s⁻¹
- Kd (recombinant human IL-13 [17]): 0.114 nM
- koff (recombinant human IL-13 [17]): 0.000956 s⁻¹
- kon (recombinant human IL-13 [17]): 8.41e+06 M⁻¹ s⁻¹
